Experiment [1] deals with HP-NAPE97GY101H (Helicobacter pylori strain 26695) (UniProt P43313). The experiment is described as follows: western blot of E. coli lysates, normalised by Ponceau S to wild-type HP-NAP. In general terms: In western blotting, separated proteins are transferred to a membrane and probed.
Experiment [2] deals with HP-NAPY101H (Helicobacter pylori strain 26695) (UniProt P43313). The experiment is described as above.
For experiment [3], the target named is HP-NAPE97GY101H (Helicobacter pylori strain 26695) (UniProt P43313). As to the kind of experiment: recombinant HP-NAP-based ELISA, antibody X at 600 ng/ml. Background: An ELISA detects its analyte on a solid surface through an enzyme-linked reagent.
Experiment [4] addresses HP-NAPY101H (Helicobacter pylori strain 26695) (UniProt P43313). The experiment is described as above.
Experiment [5] addresses Helicobacter pylori neutrophil-activating protein (HP-NAP) of H. pylori 26695 (Helicobacter pylori strain 26695) (UniProt P43313). The experiment is described as follows: cell-based or functional assay.

For the substance “antibody X, commercial IgG/M2 monoclonal antibody (Sigma, F-3165)”, the western-blot signal intensity compared to wild-type HP-NAP in experiment [1] amounted to 9%; in experiment [2], 11%. In addition, the ELISA signal compared to wild-type HP-NAP in experiment [3] came to 33%; in experiment [4] it was 60%. The inhibition of ROS production upon two hours of HP-NAP stimulation (H2DCF-DA fluorescence) in experiment [5] amounted to 93.2%.

Source of the values: patent publication US20170082621A1.
